Laboratory results published in patent US20060222643A1 (Chugai, published 2006).

What was measured:
[1] = target: T1, human Mpl-IgG Fc fusion protein (human, UniProt P40238 26-491); assay: SPR, Biacore 2000, human Mpl-IgG Fc immobilized on CM5 by amine coupling, 1.25 to 20 µg/mL VB22B IgG injected
T1 construct: Expressed in CHO-DG44 with a 19-residue signal peptide from a human IgG H chain variable region (left out); also called hMpl-Fc; hMPL-Fc; not shown: Fc region of human IgG-gamma1 (a region downstream of Asp 216)
T1 sequence: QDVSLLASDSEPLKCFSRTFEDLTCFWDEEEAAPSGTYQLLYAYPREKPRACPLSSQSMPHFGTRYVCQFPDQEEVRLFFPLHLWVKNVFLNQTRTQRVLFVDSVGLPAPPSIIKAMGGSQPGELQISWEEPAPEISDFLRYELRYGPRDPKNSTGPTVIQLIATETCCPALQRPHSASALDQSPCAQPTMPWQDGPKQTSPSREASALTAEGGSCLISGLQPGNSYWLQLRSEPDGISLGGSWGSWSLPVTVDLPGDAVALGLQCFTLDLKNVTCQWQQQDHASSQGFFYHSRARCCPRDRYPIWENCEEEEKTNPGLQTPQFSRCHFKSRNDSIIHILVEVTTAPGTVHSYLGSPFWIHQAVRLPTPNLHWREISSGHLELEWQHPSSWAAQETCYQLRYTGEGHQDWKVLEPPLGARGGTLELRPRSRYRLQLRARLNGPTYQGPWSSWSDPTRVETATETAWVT
Procedure: Since the anti-human Mpl antibody VB22B binds to soluble recombinant Mpl, kinetic analyses of the antigen-antibody reaction between VB22B IgG and human Mpl-IgG Fc fusion protein were carried out as described in Example 1.4. The Sensor Chip CM5 (Biacore) was placed in Biacore 2000 (Biacore), and human Mpl-IgG Fc fusion protein was immobilized onto the chip by amine-coupling methods. Then, 1.25 to 20 μg/mL of VB22B IgG solution was prepared using HBS-EP Buffer (Biacore), and injected over the chip surface for 2 min to reveal the binding region. Then, HBS-EP Buffer was injected over the chip surface for 2 min to reveal the dissociation region. VB22B IgG bound to the human Mpl-IgG Fc fusion protein on the sensor chip was removed by injecting 10 mM NaOH over the sensor chip for 15 sec, and the chip was recovered. HBS-EP Buffer was used as the running buffer, and the flow rate was 20 μL/min. Using the BIAevaluation Version 3.1 (Biacore) software, the reaction rate constant at each concentration was calculated from the sensorgrams.

[2] = target: T2, GST fusion protein containing human Mpl MG3 (Gln26 to Ala189) (human, UniProt P40238 26-189); assay: Western blotting of GST fusion protein
T2 construct: As MG1; not shown: glutathione-S-transferase of vector pGEX-4T-3 (Amersham Biosciences)
T2 sequence: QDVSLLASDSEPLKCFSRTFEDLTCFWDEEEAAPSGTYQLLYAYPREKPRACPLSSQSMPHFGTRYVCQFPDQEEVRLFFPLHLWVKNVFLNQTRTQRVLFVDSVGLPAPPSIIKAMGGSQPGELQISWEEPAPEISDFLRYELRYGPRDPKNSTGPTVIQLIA
Procedure: (§1) Since the anti-human Mpl antibody VB22B can be used for Western blotting, a GST-fusion protein containing a partial sequence of human Mpl was constructed for VB22B epitope analysis. MG1 (Gln26 to Trp491) and MG2 (Gln26 to Leu274) regions were each amplified by PCR, and cloned into pGEX-4T-3 (Amersham Biosciences) to be expressed as GST fusion proteins. The resulting plasmid DNAs were transformed into DH5α to give transformants. A final concentration of 1 mM IPTG was added to the transformants in their logarithmic growth phase to induce the expression of GST fusion proteins. The bacterial cells were harvested after two hours of incubation. The cells were lysed by sonication. The lysates were centrifuged in XL-80 Ultracentrifuge (Beckman, Rotor 70.1Ti) at 35,000 rpm for 30 min. The culture supernatants were removed, and then the fusion proteins were purified using GST Purification Modules (Amersham Biosciences). The samples were separated by 10%-SDS-PAGE, and then transferred onto a PVDF membrane. The membrane was analyzed by the murine antibody VB22B in Western Btotting.
(§2) Then, GST fusion proteins containing the respective regions of human Mpl: MG3 (Gln26 to Ala189), MG4 (Gln26 to Pro106), MG5 (Gln26 to Glu259), and MG6 (Gln26 to Gly245) were prepared and analyzed by Western blotting using the same procedure described above. […] In addition, GST was fused with MG7 (Gln26 to Ala231) and MG8 (Gln26 to Pro217) to prepare GST fusion proteins.

[3] = target: T3, GST fusion protein containing human Mpl MG8 (Gln26 to Pro217) (human, UniProt P40238 26-217); assay: Western blotting of GST fusion protein
T3 construct: As MG1; not shown: glutathione-S-transferase of vector pGEX-4T-3 (Amersham Biosciences)
T3 sequence: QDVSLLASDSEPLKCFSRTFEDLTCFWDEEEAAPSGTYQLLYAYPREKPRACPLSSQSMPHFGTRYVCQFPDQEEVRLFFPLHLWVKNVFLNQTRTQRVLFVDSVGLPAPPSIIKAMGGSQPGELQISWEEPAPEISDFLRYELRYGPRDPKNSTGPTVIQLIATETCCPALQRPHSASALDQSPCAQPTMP
Procedure: as §1, §2

[4] = target: T4, GST fusion protein containing human Mpl MG4 (Gln26 to Pro106) (human, UniProt P40238 26-106); assay: Western blotting of GST fusion protein
T4 construct: As MG1; not shown: glutathione-S-transferase of vector pGEX-4T-3 (Amersham Biosciences)
T4 sequence: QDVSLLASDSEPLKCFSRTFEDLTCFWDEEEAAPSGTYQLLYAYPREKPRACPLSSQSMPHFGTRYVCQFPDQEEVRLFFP
Procedure: as §1, §2

B1: anti-human Mpl antibody VB22B IgG (antibody, V domains shown)
VH: QVQLQQSGPELVKPGASVKISCKASGYAFTNSWMNWVKQRPGKGLEWIGRIYPGDGETIYNGKFRVKATLTADKSSSTAYMDISSLTSEDSAVYFCARGYDDYSFAYWGQGTLVTVSA
VL: DIVMTQAAPSIPVTPGESVSISCRSSKSLLHSNGNTYLYWFLQRPGQSPQLLIYRMSNLASGVPDRFSGSGSGTAFTLRISRVEAEDVGVYYCMQHIEYPFTFGSGTKLEIK
notes: also called murine antibody VB22B
B1 was tested, and the Kd [1] was 1.67 nM, the binding result [2] was “no binding” and the binding result [3] was “no binding”. B1: no binding [4].
